From publication PMC2978097 (2010) come the findings set out here.

The target in this experiment is α-synuclein (Homo sapiens, UniProt P37840). Kind of experiment: fluorescence anisotropy.

Molecule GVLWVGSKTR [Y39W β-syn 36D] displayed a Kd of about 1000 nM.

One may read the Kd as the equilibrium constant for the complex coming apart.
